Reference: US11077130

Legend:
[1] = target: HIV-1 Env (strain and construct not stated); test: SPR; antibody-Env mixture flowed over immobilized HJ16 (competitor: immobilized HJ16)
[2] = target: B.RHPA Env T278A (HIV-1); test: cell-based or functional assay
[3] = target: B.RHPA Env T278A R456W (HIV-1); test: cell-based or functional assay
[4] = target: B.RHPA Env N160K (HIV-1); test: cell-based or functional assay
[5] = target: B.RHPA Env N276A (HIV-1); test: cell-based or functional assay
[6] = target: B.6240 gp120 (HIV-1); test: not stated (binding of B.6420 gp120 to mAbs)

| quantity not named (value printed after the antibody's name) [6] [nM] | Substance | percent blocked [1] [%] | fold increase in IC50 (neutralization, mutant vs wild type) [2] [fold] | fold increase in IC50 (neutralization, mutant vs wild type) [3] [fold] | fold increase in IC50 (neutralization, mutant vs wild type) [4] [fold] | fold increase in IC50 (neutralization, mutant vs wild type) [5] [fold] |
| --- | --- | --- | --- | --- | --- | --- |
| – | HJ16 (antibody) | 96 | > 10 | > 1000 | 0.5 | > 10 |
| 32.1 | PG9 (antibody) | – | – | – | – | – |
